Numbered stars: 1 amine (or outer) side, 2 acyl side, 3 side chain; on linkers, the order of the positions; unused ones are H or OH. Bridge positions count the residues as written; N and C are the ends. Side chains are listed from the residue outwards. Ends that are not written are not given here. * marks the point of attachment. C20 diacid = O=C(O)CCCCCCCCCCCCCCCCCCC(=O)*; γGlu = O=C(O)[C@H](CCC(=O)[*:2])N[*:1]; AEEA = NCCOCCOCC(=O)O
B1: N^ε1-[2-[2-[2-[[(4S)-4-carboxy-4-(19-carboxynonadecanoylamino)butanoyl]amino]ethoxy]ethoxy]acetyl]-[Arg14,Arg17,Pro21,Pro27]-h-amylin (peptide)
peptide: K([AEEA-γGlu-C20 diacid])CNTATCATQRLARFLRHSSPNFGAIPSSTNVGSNTY-NH2
modifications: disulfide 2-7; N-terminus assumed
SMILES: CC[C@H](C)[C@H](NC(=O)[C@H](C)NC(=O)CNC(=O)[C@H](Cc1ccccc1)NC(=O)[C@H](CC(N)=O)NC(=O)[C@@H]1CCCN1C(=O)[C@H](CO)NC(=O)[C@H](CO)NC(=O)[C@H](Cc1c[nH]cn1)NC(=O)[C@H](CCCNC(=N)N)NC(=O)[C@H](CC(C)C)NC(=O)[C@H](Cc1ccccc1)NC(=O)[C@H](CCCNC(=N)N)NC(=O)[C@H](C)NC(=O)[C@H](CC(C)C)NC(=O)[C@H](CCCNC(=N)N)NC(=O)[C@H](CCC(N)=O)NC(=O)[C@@H](NC(=O)[C@H](C)NC(=O)[C@@H]1CSSC[C@H](NC(=O)[C@@H](N)CCCCNC(=O)COCCOCCNC(=O)CC[C@H](NC(=O)CCCCCCCCCCCCCCCCCCC(=O)O)C(=O)O)C(=O)N[C@@H](CC(N)=O)C(=O)N[C@@H]([C@@H](C)O)C(=O)N[C@@H](C)C(=O)N[C@@H]([C@@H](C)O)C(=O)N1)[C@@H](C)O)C(=O)N1CCC[C@H]1C(=O)N[C@@H](CO)C(=O)N[C@@H](CO)C(=O)N[C@H](C(=O)N[C@@H](CC(N)=O)C(=O)N[C@H](C(=O)NCC(=O)N[C@@H](CO)C(=O)N[C@@H](CC(N)=O)C(=O)N[C@H](C(=O)N[C@@H](Cc1ccc(O)cc1)C(N)=O)[C@@H](C)O)C(C)C)[C@@H](C)O
notes: also called compound 82
B2: N^ε1-[2-[2-[2-[[(4S)-4-carboxy-4-(19-carboxynonadecanoylamino)butanoyl]amino]ethoxy]ethoxy]acetyl]-[Arg17,Pro21,Pro27,Arg34]-h-amylin (peptide)
peptide: K([AEEA-γGlu-C20 diacid])CNTATCATQRLANFLRHSSPNFGAIPSSTNVGRNTY-NH2
modifications: disulfide 2-7; N-terminus assumed
SMILES: CC[C@H](C)[C@H](NC(=O)[C@H](C)NC(=O)CNC(=O)[C@H](Cc1ccccc1)NC(=O)[C@H](CC(N)=O)NC(=O)[C@@H]1CCCN1C(=O)[C@H](CO)NC(=O)[C@H](CO)NC(=O)[C@H](Cc1c[nH]cn1)NC(=O)[C@H](CCCNC(=N)N)NC(=O)[C@H](CC(C)C)NC(=O)[C@H](Cc1ccccc1)NC(=O)[C@H](CC(N)=O)NC(=O)[C@H](C)NC(=O)[C@H](CC(C)C)NC(=O)[C@H](CCCNC(=N)N)NC(=O)[C@H](CCC(N)=O)NC(=O)[C@@H](NC(=O)[C@H](C)NC(=O)[C@@H]1CSSC[C@H](NC(=O)[C@@H](N)CCCCNC(=O)COCCOCCNC(=O)CC[C@H](NC(=O)CCCCCCCCCCCCCCCCCCC(=O)O)C(=O)O)C(=O)N[C@@H](CC(N)=O)C(=O)N[C@@H]([C@@H](C)O)C(=O)N[C@@H](C)C(=O)N[C@@H]([C@@H](C)O)C(=O)N1)[C@@H](C)O)C(=O)N1CCC[C@H]1C(=O)N[C@@H](CO)C(=O)N[C@@H](CO)C(=O)N[C@H](C(=O)N[C@@H](CC(N)=O)C(=O)N[C@H](C(=O)NCC(=O)N[C@@H](CCCNC(=N)N)C(=O)N[C@@H](CC(N)=O)C(=O)N[C@H](C(=O)N[C@@H](Cc1ccc(O)cc1)C(N)=O)[C@@H](C)O)C(C)C)[C@@H](C)O
notes: also called compound 78
B3: N^ε1-[2-[2-[2-[[(4S)-4-carboxy-4-(19-carboxynonadecanoylamino)butanoyl]amino]ethoxy]ethoxy]acetyl]-[Arg17,Pro21,Pro27,His34]-h-amylin (peptide)
peptide: K([AEEA-γGlu-C20 diacid])CNTATCATQRLANFLRHSSPNFGAIPSSTNVGHNTY-NH2
modifications: disulfide 2-7; N-terminus assumed
SMILES: CC[C@H](C)[C@H](NC(=O)[C@H](C)NC(=O)CNC(=O)[C@H](Cc1ccccc1)NC(=O)[C@H](CC(N)=O)NC(=O)[C@@H]1CCCN1C(=O)[C@H](CO)NC(=O)[C@H](CO)NC(=O)[C@H](Cc1c[nH]cn1)NC(=O)[C@H](CCCNC(=N)N)NC(=O)[C@H](CC(C)C)NC(=O)[C@H](Cc1ccccc1)NC(=O)[C@H](CC(N)=O)NC(=O)[C@H](C)NC(=O)[C@H](CC(C)C)NC(=O)[C@H](CCCNC(=N)N)NC(=O)[C@H](CCC(N)=O)NC(=O)[C@@H](NC(=O)[C@H](C)NC(=O)[C@@H]1CSSC[C@H](NC(=O)[C@@H](N)CCCCNC(=O)COCCOCCNC(=O)CC[C@H](NC(=O)CCCCCCCCCCCCCCCCCCC(=O)O)C(=O)O)C(=O)N[C@@H](CC(N)=O)C(=O)N[C@@H]([C@@H](C)O)C(=O)N[C@@H](C)C(=O)N[C@@H]([C@@H](C)O)C(=O)N1)[C@@H](C)O)C(=O)N1CCC[C@H]1C(=O)N[C@@H](CO)C(=O)N[C@@H](CO)C(=O)N[C@H](C(=O)N[C@@H](CC(N)=O)C(=O)N[C@H](C(=O)NCC(=O)N[C@@H](Cc1c[nH]cn1)C(=O)N[C@@H](CC(N)=O)C(=O)N[C@H](C(=O)N[C@@H](Cc1ccc(O)cc1)C(N)=O)[C@@H](C)O)C(C)C)[C@@H](C)O
notes: also called compound 76
B4: N^ε1-[2-[2-[2-[[(4S)-4-carboxy-4-(19-carboxynonadecanoylamino)butanoyl]amino]ethoxy]ethoxy]acetyl]-[Arg17,Pro21,Pro27,Pro28,Pro34]-h-amylin (peptide)
peptide: K([AEEA-γGlu-C20 diacid])CNTATCATQRLANFLRHSSPNFGAIPPSTNVGPNTY-NH2
modifications: disulfide 2-7; N-terminus assumed
SMILES: CC[C@H](C)[C@H](NC(=O)[C@H](C)NC(=O)CNC(=O)[C@H](Cc1ccccc1)NC(=O)[C@H](CC(N)=O)NC(=O)[C@@H]1CCCN1C(=O)[C@H](CO)NC(=O)[C@H](CO)NC(=O)[C@H](Cc1c[nH]cn1)NC(=O)[C@H](CCCNC(=N)N)NC(=O)[C@H](CC(C)C)NC(=O)[C@H](Cc1ccccc1)NC(=O)[C@H](CC(N)=O)NC(=O)[C@H](C)NC(=O)[C@H](CC(C)C)NC(=O)[C@H](CCCNC(=N)N)NC(=O)[C@H](CCC(N)=O)NC(=O)[C@@H](NC(=O)[C@H](C)NC(=O)[C@@H]1CSSC[C@H](NC(=O)[C@@H](N)CCCCNC(=O)COCCOCCNC(=O)CC[C@H](NC(=O)CCCCCCCCCCCCCCCCCCC(=O)O)C(=O)O)C(=O)N[C@@H](CC(N)=O)C(=O)N[C@@H]([C@@H](C)O)C(=O)N[C@@H](C)C(=O)N[C@@H]([C@@H](C)O)C(=O)N1)[C@@H](C)O)C(=O)N1CCC[C@H]1C(=O)N1CCC[C@H]1C(=O)N[C@@H](CO)C(=O)N[C@H](C(=O)N[C@@H](CC(N)=O)C(=O)N[C@H](C(=O)NCC(=O)N1CCC[C@H]1C(=O)N[C@@H](CC(N)=O)C(=O)N[C@H](C(=O)N[C@@H](Cc1ccc(O)cc1)C(N)=O)[C@@H](C)O)C(C)C)[C@@H](C)O
notes: also called compound 55

Biological target: T1, human amylin receptor (amylin 3(a) receptor: human calcitonin receptor co-expressed with RAMP-3) (human, UniProt P30988 25-474; O60896 24-148, limits assumed)
T1 sequence (looked up) 1: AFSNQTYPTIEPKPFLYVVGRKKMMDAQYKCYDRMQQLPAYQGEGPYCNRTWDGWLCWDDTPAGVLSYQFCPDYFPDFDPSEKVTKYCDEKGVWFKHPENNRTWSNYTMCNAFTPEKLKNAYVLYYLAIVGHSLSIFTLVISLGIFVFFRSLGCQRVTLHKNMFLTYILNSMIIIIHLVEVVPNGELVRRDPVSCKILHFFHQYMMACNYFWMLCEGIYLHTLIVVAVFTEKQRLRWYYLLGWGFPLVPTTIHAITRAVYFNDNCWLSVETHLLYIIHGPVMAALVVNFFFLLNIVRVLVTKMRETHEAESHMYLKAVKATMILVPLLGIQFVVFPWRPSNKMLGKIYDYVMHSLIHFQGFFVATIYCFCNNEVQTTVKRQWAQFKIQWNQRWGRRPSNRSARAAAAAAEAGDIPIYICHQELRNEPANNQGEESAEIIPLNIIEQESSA
T1 sequence (looked up) 2: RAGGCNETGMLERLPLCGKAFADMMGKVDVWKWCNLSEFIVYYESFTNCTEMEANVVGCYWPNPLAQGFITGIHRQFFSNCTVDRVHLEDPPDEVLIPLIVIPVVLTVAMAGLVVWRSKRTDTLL
Experiment: cell-based or functional assay

Binder	Ratio hCT/hAmylin funct.	hAmylin-R funct. EC50 [nM]
B1	59.2	0.215
B2	–	0.316
B3	–	0.297
B4	–	0.068

Biological target: T2, human calcitonin receptor (human, UniProt P30988 25-474)
T2 sequence (looked up): T1 sequence (looked up) 1
Experiment: cell-based or functional assay

Binder	hCTR funct. EC50 [nM]
B1	12.7
B2	8.17
B3	7.37
B4	0.731

From patent publication US20140087995A1 (published 2014)
